Literature values, collected in publication PMC11349558.

Target: histone H4 (UniProt P62805)

Kd: 2 nM
Substance: fibrinogen D-domain (from UniProt P02671)
